Consider three molecules from patent EP4806919A1 (Cells & Genes Biotech (Shanghai) Co., Ltd, dated 2026).

“And” between values parts separate entries of the source, which are not always exact repeats. Equal values may be shown once.

In assay [1] the target is BCMA on cell surface of BCMA-positive cells (NCI-H929; RPMI-8226) (UniProt Q02223). Briefly: flow cytometry on NCI-H929 cells, control without nanobody.
Assay [2] addresses Human BCMA-His recombinant protein (human) (UniProt Q02223). Kind of assay: phage ELISA, antigen coated 100 ng/well, Anti-M13 HRP. For orientation: An ELISA detects its analyte on a solid surface through an enzyme-linked reagent.
For assay [3], the target named is Cyno BCMA-His antigen (cyno (monkey)). Described as above.
Sequence of Cyno BCMA-His antigen (cyno (monkey)) (chain, as listed by the source): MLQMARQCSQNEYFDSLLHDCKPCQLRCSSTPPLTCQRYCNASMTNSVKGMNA
In assay [4] the target is BCMA on cell surface of BCMA-positive cells (NCI-H929; RPMI-8226) (UniProt Q02223). Kind of assay: flow cytometry on NCI-H929 cells, antibody 10 ug/mL. (A flow cytometer gives signals particle by particle.)
Assay [5] has as its target T1, Human BCMA-His recombinant protein (human, UniProt Q02223 1-54).
T1 construct: Supplied reagent (Chengdu Shengshi Junlian Biotechnology, Cat# BCA-H522y); also called Cat# BCA-H522y; not shown: His tag
T1 sequence (looked up): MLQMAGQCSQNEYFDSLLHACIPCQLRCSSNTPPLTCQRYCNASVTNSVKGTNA
Briefly: ELISA, Human-BCMA-His coated 200 ng/well.

The target of assay [6] is BCMA on cell surface of BCMA-positive cells (NCI-H929; RPMI-8226) (UniProt Q02223). Briefly: flow cytometry on NCI-H929 cells, antibody 10 ug/ml, PE anti-human Fc.
The target of assay [7] is T1, Human BCMA-His recombinant protein. Briefly: ELISA, Human BCMA His coated 200 ng/well, anti-human Fc HRP.

hIgG Fc-PE (antibody) came in with an NCI-H929 Positive Rate% in assay [1] of 0.04%.

B1: BC-HC-15 (positive phage clone, VHH displayed on phage) (VHH)
VHH: EVQLVQSGGGSVQAGGSLRLSCAASGGDISSTFMGWFRQAPGKEREGVAAIYTGDGTTDYADSVKGRFTIAQDNAKNTVYLEMSRLKPEDTALYYCATGLDGSGSVFSPRSFRYWGQGTQVTVSS
In the case of B1, the OD (phage ELISA, human) in assay [2] turned out to be 2.11 OD450. The same molecule displayed an OD (phage ELISA, monkey) in assay [3] of 1.79 OD450.

B2: BC-HC-15 nanobody, recombinant VHH-hIgG1Fc antibody (Fc fusion)
chain: B1 VHH
notes: also called VHH-hFC; not shown: human IgG1 Fc (hIgG1Fc) from the pVHH-hIgG1Fc expression plasmid
In assay [4], B2 gave a positive binding rate of more than 95%. Further, the EC50 is less than 10 nM in assay [5]; 0.605 µg/mL and 7.57 nM in assay [7]. The molecule also had an NCI-H929 Positive Rate% in assay [6] of 99.9%.

In general, EC50 refers to the midpoint of the concentration-response curve.
